Reference: doi:10.1101/2022.10.04.510822 (bioRxiv, 2022)

Molecular target: GST-GABARAP (human, UniProt O95166 1-117)
Experiment: pull-down

Sequence of GST-GABARAP (O95166 whole entry): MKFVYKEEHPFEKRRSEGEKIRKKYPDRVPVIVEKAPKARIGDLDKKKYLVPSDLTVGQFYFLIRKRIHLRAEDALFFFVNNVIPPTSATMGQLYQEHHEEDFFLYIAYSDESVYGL

B1: WSTF peptide PP4 (residues 466-492) (peptide)
peptide: KPHKHLPPAALHLIAYYKENKDREDKR
binding result: binds
